Patent US20250009852A1, “DEPLETING EGFR AND HER2 OVERCOMES RESISTANCE TO EGFR INHIBITORS IN COLORECTAL CANCER” (Health Research, Inc., priority 2021, published 2025)

What was measured:
PI3K = PI3K activity assay (PI3-Kinase Activity ELISA) in cell lysates; type: cell-based, human; settings: 25 nM, 48 h
Procedure: PI3K activity was measured using a PI3-Kinase Activity ELISA Kit from Echelon Biosciences, following manufacturer's instruction. Briefly, PI3K was pulled down from whole cell lysates using an antibody for PI3K/p85. Each sample was prepared from approximately 1×10^6 cells. The entire immunoprecipitate from each sample was mixed with 30 μl of KBZ reaction buffer, which was then mixed with 30 μl of 10 μM PI(4,5)P2 substrate and incubated for 2 h at 37° C. The kinase reaction was terminated by adding 90 μl of kinase stop solution to each reaction solution, and 60 μl of each mixture was transferred together with 60 μl of PIP3 detector to a well in the incubation plate. After incubation at RT for 1 h, 100 μl per sample from the incubation plate was transferred to the detection plate and incubated for 1 h at RT. The detection plate was washed with TBST, incubated with the HRP-conjugated secondary detector for 30 min, washed again with TBST, and the immobilized HRP was measured by a standard colorimetric assay, using 3,3′,5,5′-tetramethylbenzedine as a substrate and a Synergy 2 Multi-Mode Microplate Reader to record absorbance.

RAS = RAS activity assay (Ras Activation ELISA) in cell lysates; type: cell-based, human; settings: 25 nM, 48 h
Procedure: Ras activity in cell lysates was measured using a Ras Activation ELISA Kit from Cell Biolabs. Briefly, approximately 5×10^6 cells were mixed with 0.5 ml lysis buffer. Cell lysates were cleared by centrifugation at 14,000 g for 10 min at 4° C., and 250 μl per sample was mixed with 10 μl of 0.5 M EDTA with or without 5 μl of either 100× GTPγS or 100× GDP, which was incubated at 37° C. for 30 min with agitation and then mixed with 33 μl of 1 M MgCl2. The mixture after appropriate dilution was transferred at 100 μl per sample to a well in a 96-well plate immobilized with RAF-1 RAS-binding domain and incubated for 1 h at RT. After washing the wells 5 times with wash buffer, 100 μl of an anti-pan-RAS antibody was added to each well and incubated for 1 h at RT. After another round of wash, 100 μl of a secondary antibody-HRP conjugate was added to each well and incubated for 1 h at RT. After yet another round of wash, 100 μl of substrate solution was added to each well and incubated at RT for 20 min, followed by addition of 100 μl of stop solution to each well. Absorbance at 450 nm in each well was recorded by a Synergy 2 Multi-Mode Microplate Reader.

SW48 tumors = assay: Subcutaneous SW48 tumors in SCID mice; type: in vivo, mouse; settings: sc SW48 tumors; EP 0.5 mg/kg ip daily plus PEPD^G278D 4 mg/kg ip three times weekly, or cetuximab 15 mg/kg ip twice weekly
Procedure: SCID mice (C.B.17 SCID) were bred by the Laboratory Animal Shared Resource at Roswell Park Comprehensive Cancer Center. Male mice at 7-8 weeks of age were used. All mouse experiments were approved by the Institutional Animal Care and Use Committee at Roswell Park Comprehensive Cancer Center under protocol 1022M. We established subcutaneous tumors by inoculating 1×10^6 HCT116 cells, 4×10^6 HT29 cells, or 2×10^6 SW48 cells to the flank of each mouse in 100 μl of serum free medium. Colon patient-derived xenograft (PDX) 14650 was established from a liver metastatic lesion in a patient treated at Roswell Park Comprehensive Cancer Center. Tumor fragments (˜20 mm^3) from donor mice were implanted into the flank of each mouse subcutaneously using a trocar. […] Subcutaneous tumor volume was measured using length ×width^2÷2. Tumor volume was measured three times each week. Orthotopic tumor growth was monitored by bioluminescence weekly. Mice were given D-luciferin (150 mg/kg) by ip and anesthetized with isoflurane, and tumor burden was measured by bioluminescence using the IVIS Spectrum In Vivo Imaging System (PerkinElmer). Drug treatment was started when significant tumor growth was detected. […] The mice were closely monitored for sign of adverse effects and weighed three times each week. […]

[1] = Measurement of plasma PEPD^G278D concentration by ELISA; type: in vivo, mouse; settings: mice bearing SW48 tumors and HCT116 tumors; 24 h after final PEPD^G278D treatment (4 mg/kg ip with EP)
Procedure: Plasma PEPD^G278D concentration was measured by ELISA as previously reported. Briefly, 96-well ELISA plates were coated with 100 μl/well of a PEPD antibody (mouse monoclonal, against amino acids 101-305, sc-390042) overnight at 4° C. The plates were then washed three times with PBST and incubated with 200 μl/well of a blocking buffer for at least 2 h at RT. The plates were washed again with PBST and incubated with 100 μl/well of a PEPD standard or a sample, which were appropriately diluted, for 2 h at RT. After another round of wash with PBST, each well was incubated with 100 μl of a detection antibody (an anti-PEPD rabbit polyclonal, ab-86507) for 2 h at RT. After another round of wash with PBST, 100 μl of a secondary antibody-HRP conjugate was added to each well, followed by 1 h incubation at RT. The plates were washed again with PBST three times, and each well was then incubated with 100 μl of a HRP substrate solution. After adequate color development, 100 μl of stop solution was added to each well, and absorbance at 450 nm was recorded by a Synergy 2 Multi-Mode Microplate Reader. Purified recombinant PEPD^G278D was used as a standard.

B1: PEPD^G278D: recombinant and enzymatically inactive mutant of human peptidase D (PEPD), with replacement of glycine 278 by aspartic acid (protein)
chain: AAATGPSFWLGNETLKVPLALFALNRQRLCERLRKNPAVQAGSIVVLQGGEETQRYCTDTGVLFLQESFFHWAFGVTEPGCYGVIDVDTGKSTLFVPRLPASHATWMGKIHSKEHFKEKYAVDDVQYVDEIASVLTSQKPSVLLTLRGVNTDSGSVCREASFDGISKFEVNNTILHPEIVESRVFKTDMELEVLRYTNKISSEAHREVMKAVKVGMKEYGLESLFEHYCYSRGGMRHSSYTCICGSGENSAVLHYGHAGAPNDRTIQNGDMCLFDMDGEYYSVASDITCSFPRNGKFTADQKAVYEAVLLSSRAVMGAMKPGDWWPDIDRLADRIHLEELAHMGILSGSVDAMVQAHLGAVFMPHGLGHFLGIDVHDVGGYPEGVERIDEPGLRSLRTARHLQPGMVLTVEPGIYFIDHLLDEALADPARASFLNREVLQRFRGFGGVRIEEDVVVIDSGIELLTCVPRTVEEIEACMAGCDKAFTPFSGPK
modifications: left off: small tags and cut ends
- inhibition of PI3K activity (PI3K; HCT116 cells): 74%
- inhibition of PI3K activity (PI3K; HT29 cells): 71%
- inhibition of PI3K activity (PI3K; SW48 cells): 76%
- inhibition of PI3K activity (PI3K; SW620 cells): not in SW620 cells
- inhibition of RAS activity (RAS; HCT116 cells): 73%
- inhibition of RAS activity (RAS; HT29 cells): 75%
- inhibition of RAS activity (RAS; SW48 cells): 75%
- inhibition of tumor growth at the end of treatment (SW48 tumors): 91.5%
- plasma concentrations of PEPD^G278D [1]: high and similar
